Source: publication PMC3315329

Key:
[1] = molecular target: 40S ribosomal subunits of asc1Δ cells (lacking ASC1) (S. cerevisiae (endogenous in yeast)) (UniProt P32905); assay: cross-linking + co-sedimentation
[2] = molecular target: 40S ribosomal subunits (wild type) (S. cerevisiae (endogenous in yeast)) (UniProt P38011); assay: cross-linking + co-sedimentation
Sequence of UniProt P38011 (P38011 whole entry, looked up, tested part not stated): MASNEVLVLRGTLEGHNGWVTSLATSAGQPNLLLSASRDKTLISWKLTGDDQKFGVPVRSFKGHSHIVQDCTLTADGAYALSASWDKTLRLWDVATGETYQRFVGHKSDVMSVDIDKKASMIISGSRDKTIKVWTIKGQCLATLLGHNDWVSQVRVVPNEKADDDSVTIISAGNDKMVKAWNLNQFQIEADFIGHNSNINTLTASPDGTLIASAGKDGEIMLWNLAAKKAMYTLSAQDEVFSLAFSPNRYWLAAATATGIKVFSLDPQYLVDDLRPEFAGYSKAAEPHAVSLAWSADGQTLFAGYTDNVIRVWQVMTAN

Sequence of UniProt P32905 (P32905 whole entry, looked up, stated change not applied, tested part not stated): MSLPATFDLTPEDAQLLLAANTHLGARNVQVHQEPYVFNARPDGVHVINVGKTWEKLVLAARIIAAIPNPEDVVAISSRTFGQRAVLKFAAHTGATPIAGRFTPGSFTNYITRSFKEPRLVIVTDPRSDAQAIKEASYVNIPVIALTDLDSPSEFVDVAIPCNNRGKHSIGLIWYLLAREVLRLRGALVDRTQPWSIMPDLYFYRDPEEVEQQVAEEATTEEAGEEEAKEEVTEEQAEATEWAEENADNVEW

Row | Substance | reduction of the 40S-associated amount relative to wt [1] [%] | reduction of the 40S-bound amount in nip1-Δ60 cells relative to wt [2] [%] | reduction of the eIF/40S ratio in nip1-743A752 cells relative to wt [2] [%]
1 | eIF2 (from UniProt P20459 1-304; P09064 1-285; P32481 1-527) (complex) | 50 | – | –
2 | eIF5 (from UniProt P38431 1-405) (natural protein) | 50 | 20 | 60
